We go through 2 substances from article PMC4849473.

In data set [1] the test system is His6-SUMO-Chp1CD LOOP1B/2B (Schizosaccharomyces pombe). In words: MST. To be noted: H3KC9me3 methyl-lysine analog; X. laevis H2A, H2B, H3, H4; Nucleosome pull-down: 20 mM HEPES pH 7.5, 100 mM KCl, 0.5 mM DTT, 40 mM imidazole, on ice; complex assembly and RNA pull-down: 20 mM HEPES pH 7.5, 75 mM KCl, 0.
Data set [2] deals with Chp1CD LOOP1B/2B, SUMO tag removed, fluorescently labelled (for MST) (fission yeast (S. pombe)) (UniProt Q10103). In words: MST; 300 ng fluorescent Chp1CD (SUMO removed) in 20 μl, H3K9me3Nucleosomes titrated (0 to 2.4 μM); 10 mM Tris-HCl pH 7.5, 150 mM NaCl, 0.5 mM DTT, 0.05% Tween-20, 10% glycerol; cubic fit, Kd interpolated at 50% bound.
Sequence of Chp1CD LOOP1B/2B, SUMO tag removed, fluorescently labelled (for MST) (fission yeast (S. pombe)) (Q10103 15-75 N33A/N35A/W49A/Y50A/D51A): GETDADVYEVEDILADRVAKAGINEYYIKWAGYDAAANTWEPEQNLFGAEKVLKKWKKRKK

As for H3K9me3 nucleosome (601), in data set [1], the binding signal (fold reduction in Kd vs wt) is more than 5. Take “H3K9me3 methyl lysine analog (MLA) nucleosome (complex)”: in data set [2], the fold reduction in Kd against wild-type Chp1CD was more than 5 fold.
